The nanobody polyreactivity screen of Harvey et al. (2022)

Test: yeast display, Sf9 membrane polyspecificity reagent, FACS + sequencing; frameworks hold sequencing errors
Procedure, shortened: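 In a synthetic yeast display library (Saccharomyces cerevisiae BJ5465), nanobody expression was induced with galactose for 36–48 hours. FACS gates were set low and high (top ~1%) using anti-HA fluorescence for expression and streptavidin fluorescence for binding of the Sf9 membrane reagent. Each polyreactivity label is drawn from the gate of origin.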

Sequence	polyreactivity (PSR sort gate)
QVQLVESGGGLVQAGGSLRLSCAASGFTFHSYAMGWYRQAPGKERELVATISRSGGSTYYADSVKGRFTISRDNAKNTVYLQMNSLKPEDTAVYYCNKLLYGWSKPVGYDYYWGQGTQVTVSS	high polyreactivity
QVQLVESGGGLVQAGGSLRLSCAASGFTFHTYAMGWYRQAPGKERELVAAIDSSGGITYYADSVKGRFTISRDHAKNTVYLQMNSLKPEDTAVYYCAAVFLLFGFEWSYDYWGQGTQVTVSS	low polyreactivity
QVQLVESGGGLVQAGGSLRLSCAASGFTFHYYAMGWYRQAPGKEWELVAAITKSGGRTSYADSVKGRFTISRDNAKNTVYLQMNSLKPEDTAVYYCAAARYRARIGNDYWGQGTQVTVSS	low polyreactivity
QVQLVESGGGLVQAGGSLRLSCAASGFTFIDNTMGWYRQAPGKERELVAAISSDGRTNYAVSVKGRFTISRDNAKNTVYLQMNSLKAEDTAFYYCATEDNYWYVTGDLYHSAFYYWGQGTQVTVSS	low polyreactivity
QVQLVESGGGLVQAGGSLRLSCAASGFTFIPNAMGWYRQAPGKERELVADITWSGGTTYYADSVKGRFTISRDNAKNTVYLQMNSLKPEDTAVYYCNADYLFYAFDYWGQGTQVTVSS	low polyreactivity
QVQLVESGGGLVQAGGSLRLSCAASGFTFIQYAMGWYRPAPGKERELVAAMTWSGGRTYYADSVKGRFTISRDNAKNTVYLHMNSLKPEDTAVYYCAKPFNIWGQGTKVTVSS	high polyreactivity
QVQLVESGGGLVQAGGSLRLSCAASGFTFIRNAMGWYRQAPGKERELVAAISWRGVRTYADSVKGRFTISRDNAKNTVYLQMHSQKPEDTAVYYCAARDAHYYPTMGYWGQGTQVTVSS	high polyreactivity
QVQLVESGGGLVQAGGSLRLSCAASGFTFIRYAMGWDRQAPGKERELVAAISVSGGRTYYADSVKGRFTISRDNAKNTVYLQMNSLKPEDTAVYYCARRPSYYQGDYWGQGTQVTVSS	high polyreactivity
QVQLVESGGGLVQAGGSLRLSCAASGFTFIRYAMGWYRPAPGKERELVATITRRGGSTYYADSVKGRFSISRDNAKNTVYLQMNCLKPEDTAVYYCNRDYVTYGKYYYWGQGTQVTVSS	high polyreactivity
QVQLVESGGGLVQAGGSLRLSCAASGFTFIRYAMGWYRQAPGKARELVAAIRGTGTSTYYADSVKGRFTISRDNAKNTVYLQMNSLKPEDTAVYYCNKVAGRSPYTRYDYWGQGTQVTVSS	low polyreactivity
QVQLVESGGGLVQAGGSLRLSCAASGFTFISNAMGWYRQAPGKERELVAAISGRGGRTYYADSVKGRFTISRDNAKNTVYLQMNSLKPEDTAVYYCNAVFRKLHYDYWGQGTQVTVSS	high polyreactivity
QVQLVESGGGLVQAGGSLRLSCAASGFTFIVNPMGWYRQAPGKERELVAAISWNGGSTYYADSVKGRFTISRDNAKNTVYLQMNSLKPEDTAVYYCAVLYRSEYVWGQGTQVTVSS	low polyreactivity
QVQLVESGGGLVQAGGSLRLSCAASGFTFIYNAMGWYRQAPGKERELVAAISYRTSRTYYADSVKGRFTISRDNAKNTVYLQMNSLKPEDTAVYYCAKGYGRHGLDYWGQGTQVTVSS	high polyreactivity
QVQLVESGGGLVQAGGSLRLSCAASGFTFIYNAMGWYRQAPGKERELVAAITGGGGSTYYADSVKGRFTISRDNAKYTVYLQMNSLKPEDTAVYYCNVYYPQSGVTYDYWGQGTLVTVSS	low polyreactivity
QVQLVESGGGLVQAGGSLRLSCAASGFTFIYYAMGWYRQAPGKERELVAAISTSGGRTYYADSVKGRFTISRDNAKNTVYLQMNCLKPEYTAVYYCAADGHYRYTSRYGLIVRYDYWGQGTQVTVSS	high polyreactivity
QVQLVESGGGLVQAGGSLRLSCAASGFTFKDYAMGWYRQAPGKERELVAANSRSGGSTYYADSVKGRFTNSRDSAKNTVYLQMNSLKPEDTAVYYCAAAYVRYRDPYGYWGQGTQVTVSS	high polyreactivity
QVQLVESGGGLVQAGGSLRLSCAASGFTFKFYAMGWYRQAPGKERELVAAISARGGITYYADSVKGRFTISRDNAKNTVYLQMNSLKPEDTAVYYCAAGVFGHYAFVEFDYWGQGTQVTVSS	high polyreactivity
QVQLVESGGGLVQAGGSLRLSCAASGFTFKGYAMGWYRQAPGKERELVAGITSGGRTYYADSVKGRFTISRDNAKNTVYLQMNSLKPEDTAVYYCAAVHYVAYYGYDYWGQGSQVTVSS	high polyreactivity
QVQLVESGGGLVQAGGSLRLSCAASGFTFKHYAMGWYRQATGKERELVATITRGGSTNYADSVKGRFTISRDNAKNTVYLQMNSLKPEDSAVYYCAAADYVRYPFTRGYIYQGYDYWGQGTQVTVSS	low polyreactivity
QVQLVESGGGLVQAGGSLRLSCAASGFTFKLNAMGWYRPAPGKERELVAAISWGGGTTYYADSVKGRFTISRDNAKNTVYLQMNSLKPEDTAVYYCAADGTGTYDYWGQGTQVTVSS	low polyreactivity
QVQLVESGGGLVQAGGSLRLSCAASGFTFKLNAMGWYRQAPGKERELVATISSSGGSTFYADSVKGRFTISRDNAKNTVYLQMNSLKPEDTAVYYCAADSGYGPYYYWGQGTQVTVSS	high polyreactivity
QVQLVESGGGLVQAGGSLRLSCAASGFTFKLYAMGWYRQAPGNEREWVAAIRRGGTTNYADSVKGRFTISRDTAKNTVYLQMNSLKPEDTAVYYCAADGWYPGVYYPYTEFDYWGQGTQVTVSS	high polyreactivity

Sequence	polyreactivity (PSR sort gate)
QVQLVESGGGLVQAGGSLRLSCAASGFTFKYNAMGWYRQAPGKERELVASISSGSTNYADSVKGRFTISRDNAKNTVYLQMNSLKPEDTAVYYCAASVSRGKRFRYGYVFKMDYWGQGTQVTVSS	low polyreactivity
QVQLVESGGGLVQAGGSLRLSCAASGFTFKYYAMGWYRQAPGKEREFVAAISRSGGSTTYADSVKGRFTISRDNAKNTVYLQMNSLKPEDSAVYYCAVAYYTAYTPRDGEYWGQGTQVTVSS	high polyreactivity
QVQLVESGGGLVQAGGSLRLSCAASGFTFKYYAMGWYRQAPGKERELVAAIRRSAGSTNYADSVKGRFTISRDNAKNTVYLQMNSLKPEDTAVYYCNTVGTRQPMDYWGQGTLVTVSS	high polyreactivity
QVQLVESGGGLVQAGGSLRLSCAASGFTFKYYAMGWYRQAPGKERELVAAISRGGSTYYADSVKGRFTFSRDNAKNTVYLQMNSLKPEDTAVYYCAARYVRVGYDYWGQGTQVTVSS	high polyreactivity
QVQLVESGGGLVQAGGSLRLSCAASGFTFKYYAMGWYRQAPGKERELVAAITSGGSTYADSVKGRFTISRDNAKITVYLQMNSLKPEDTAVYYCAASIDSGKWLGRRYDYWGQGTQVTVSS	low polyreactivity
QVQLVESGGGLVQAGGSLRLSCAASGFTFKYYTMGWYRQAPGKERELVAVISRTGSTNYADSVKGRFTISRDNAKNTVYLQMNSLKPEDTAVYYFITARGKYAFFDVDYWGQGTQVTVTS	high polyreactivity
QVQLVESGGGLVQAGGSLRLSCAASGFTFLGYDMGWYRQAPGKERELVATISSGGRTYYADSVKGRFTISRDNAKNTVYLQMNSMKPEDTAVYYFAAPRFRRLDFDFWGQGTQVTVSS	low polyreactivity
QVQLVESGGGLVQAGGSLRLSCAASGFTFLKNAMVWYRQAPGKERELVAAITGSGGSTYYADSVKGRFTISRDNAKNTVYLQMNSLKPEDTAVYYCNVRRGLRAYEYWGQGTQVTVSS	high polyreactivity
QVQLVESGGGLVQAGGSLRLSCAASGFTFLKYAIGWYRQAPGKERELVAAISFSTGRTYYADSVKGRFTISRDNAKNTVYLQMNSLKPEDPAVYYGAAGYWPGYSLTYRGGFWGQGTQVTVSS	high polyreactivity
QVQLVESGGGLVQAGGSLRLSCAASGFTFLSNAMGWYRQAPGKERELVATINSGGSTNYADSVKGRFTISRDNAKNTVYLQMNSLKPEDTAVYYCAAKLWRYYHYDYWGQGTQVTVSS	low polyreactivity
QVQLVESGGGLVQAGGSLRLSCAASGFTFLTYAMGWYRQAPGKERELVAAINNSGGRTYYADSVKGRFTISRDNAKNTVYLQMNSLKPEDTAVYYCAADYLRGKHRYGYWGQGTQVTVSS	high polyreactivity
QVQLVESGGGLVQAGGSLRLSCAASGFTFLYNAMGWYRQAPGKERELVASIRTGTGTYYADSVKGRFTISRDNAKNTVYLQMNSLKPEDTAVYYCAAENFYPYTYYASDYWGQGTQVTVSS	high polyreactivity
QVQLVESGGGLVQAGGSLRLSCAASGFTFNANAMGWYRQAPGKERELVADISLSGGRTYYADSVKGRFTISRDNAKNTVYLQMNSLKPEDTAVYYCAASPDGSFRRFSRVVSGDYWGQGTQVTVSS	high polyreactivity
QVQLVESGGGLVQAGGSLRLSCAASGFTFNANAMGWYRQAPGKERELVAVNTRSGGRTYYADSVKGRFTISRDNAKNTVYLQMNSLKPEDTAVYYCAKEGPSRVYQGTDSASDYWGQGTQVTVSS	high polyreactivity
QVQLVESGGGLVQAGGSLRLSCAASGFTFNDYAMGWYRQAPGKERELVAAIDWSGGRTYYADSVKGRFTISRDNAKNTVYLQMNSLKPEDTAVYYCATEYYDGYFPTFDYDYWGQGTQVTVSS	low polyreactivity
QVQLVESGGGLVQAGGSLRLSCAASGFTFNDYAMGWYRQAPGKERELVAAISKSGSRTYYADSVKGRFTISRDNAMNTVYLQMNSLKPEDTAVYYCNALPSYYGTYDYWGQGTQVTVSS	high polyreactivity
QVQLVESGGGLVQAGGSLRLSCAASGFTFNFYAMGWYRQAPGKERELVASITSSGARTYYADSVKGRFTISRDNAKNSVYLQMNSLKPEDTAVYYCAARVYRYSASRAYDYWGQGTQVTVSS	high polyreactivity
QVQLVESGGGLVQAGGSLRLSCAASGFTFNGYAMGWYRQAPGKERELVAGITRRGGITYYADSVKGRFTISRDNAKNTVYLQMNCLKPEDTAVYYCARDYIGHALIHHASLYYYWGQGTQVTVSS	high polyreactivity
QVQLVESGGGLVQAGGSLRLSCAASGFTFNLYDMGWYRQAPGKERELVAAINWSGGTYYADSVKGRFTISRDNAKNTVYLQMNSLKPEDPAVYYCAADFPYTPWSYHHHVWSPDFDYWGQGTQVTVSS	low polyreactivity
QVQLVESGGGLVQAGGSLRLSCAASGFTFNPNAMGWYRQAPGKERELVAPITRSGGSTYYADSVKGRFTISRDNAKNTVYLQMNSLKPEDTAVYYCNAPFRVSTTRRRYPGIDSHYYWGQGTQVTVSS	high polyreactivity
QVQLVESGGGLVQAGGSLRLSCAASGFTFNQNAMGWYRQAPGKERELVAAISASGGSTYYADSVKGRFTISRDNAKNTVYLQMNSLKPEDTAVYYCAARGTYRYTKYNYWGQGTQVTVSS	high polyreactivity
